The experiment has as its target T1, VEGFR2-immunoglobulin Fc fusion protein (UniProt P35968 20-764).
T1 construct: VEGFR2 (vascular endothelial growth factor receptor 2); Probably the extracellular domain of VEGFR2 fused to an IgG Fc, as sold by R&D Systems (surmise); also called VEGFR2-Fc; source: bought: R&D Systems
In words: BLI; BLItz system; VEGFR2-Fc (5 uL at 250 ug/mL) loaded on protein A-coated probes for 300 s; CPG2 or CPG2-p700 in the drop holder, five runs at 600 nM to 10 uM; PBS. The following applies: both partners purified. (Biolayer interferometry detects binding as a change in optical thickness at a sensor tip.)

For orientation: Kd means the free concentration of one partner at which half of the binding sites on the other are occupied at equilibrium, for simple one-to-one binding. A high value points to lower affinity.

T1 sequence (P35968 20-764): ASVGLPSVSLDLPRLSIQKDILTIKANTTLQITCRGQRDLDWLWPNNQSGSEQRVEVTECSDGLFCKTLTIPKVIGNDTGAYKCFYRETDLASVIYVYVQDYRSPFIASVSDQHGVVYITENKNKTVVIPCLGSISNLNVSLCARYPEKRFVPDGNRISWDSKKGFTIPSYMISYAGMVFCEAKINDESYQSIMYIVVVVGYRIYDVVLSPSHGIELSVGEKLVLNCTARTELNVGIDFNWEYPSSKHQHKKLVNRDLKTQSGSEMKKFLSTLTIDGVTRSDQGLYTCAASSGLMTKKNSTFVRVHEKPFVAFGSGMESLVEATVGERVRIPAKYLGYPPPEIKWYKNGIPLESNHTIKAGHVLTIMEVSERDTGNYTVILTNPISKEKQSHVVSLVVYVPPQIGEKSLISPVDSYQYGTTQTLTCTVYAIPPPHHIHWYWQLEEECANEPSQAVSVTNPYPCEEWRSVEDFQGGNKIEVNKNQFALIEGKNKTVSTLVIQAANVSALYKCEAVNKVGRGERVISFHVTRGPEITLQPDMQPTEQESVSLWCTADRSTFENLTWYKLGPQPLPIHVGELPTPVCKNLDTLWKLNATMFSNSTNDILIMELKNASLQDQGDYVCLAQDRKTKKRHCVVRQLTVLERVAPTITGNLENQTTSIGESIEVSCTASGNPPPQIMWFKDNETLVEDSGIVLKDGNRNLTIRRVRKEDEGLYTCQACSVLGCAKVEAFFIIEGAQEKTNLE

B1: recombinant codon-optimised carboxypeptidase G2 (CPG2-His) (enzyme, Pseudomonas aeruginosa strain RS-16, UniProt P06621 23-415, looked up)
chain: ALAQKRDNVLFQAATDEQPAVIKTLEKLVNIETGTGDAEGIAAAGNFLEAELKNLGFTVTRSKSAGLVVGDNIVGKIKGRGGKNLLLMSHMDTVYLKGILAKAPFRVEGDKAYGPGIADDKGGNAVILHTLKLLKEYGVRDYGTITVLFNTDEEKGSFGSRDLIQEEAKLADYVLSFEPTSAGDEKLSLGTSGIAYVQVNITGKASHAGAAPELGVNALVEASDLVLRTMNIDDKAKNLRFNWTIAKAGNVSNIIPASATLNADVRYARNEDFDAAMKTLEERAQQKKLPEADVKVIVTRGRPAFNAGEGGKKLVDKAVAYYKEAGGTLGVEERTGGGTDAAYAALSGKPVIESLGLPGFGYHSDKAEYVDISAIPRRLYMAARLIMDLGAGK
notes: carboxypeptidase G2 (CPG2, glucarpidase), gene codon optimised for E. coli (Goda et al. 2009), approximately 1200 bp; Expected size 45 kDa; Cloned NdeI/NotI into pET28a, which may add an N-terminal His tag from the vector (surmise); construct in Supplementary Data S1; also called CPG2 alone; CPG2-only; source: E. coli BL21 (DE3), purified by Ni2+-NTA chromatography from pooled 2 M urea washes of …
Molecule B1 yielded a Kd of 15 µM.

Source of the values: PMC7865317, “Coupling of a Novel TIMP3 Peptide to Carboxypeptidase G2 for Pro-Drug Activation at the Tumour Site” (Molecules, 2021).
